Source: patent CN113754774A (SUNSHINE GUOJIAN PHARMACEUTICAL SHANGHAI CO LTD, dated 2021)

B1: PDL1-Fab-Cetuximab-IgG1 (bispecific antibody)
heavy: not shown
light: EIVLTQSPDFLSVTPKEKVTITCRASQSIGTTIHWYQQKPDQSPKLLIKYASQSFSGVPSRFSGSGSGTDFTLTINSVEAEDAATYYCQQSNSWPLTFGAGTKLEIKRTVAAPSVFIFPPSDEQLKSGTASVVCLLNNFYPREAKVQWKVDNALQSGNSQESVTEQDSKDSTYSLSSTLTLSKADYEKHKVYACEVTHQGLSSPVTKSFNRGEC
notes: Tetravalent bispecific antibody against PD-L1 and EGFR; two long polypeptide chains and four common light chains
B2: Cetuximab-Fab-PDL1-IgG1 (bispecific antibody)
heavy: not shown
light: B1 light
notes: as for B1
B3: Cetuximab-HC+Anti-PDL1-LC (antibody, V domains shown)
VH: not shown
VL: EIVLTQSPDFLSVTPKEKVTITCRASQSIGTTIHWYQQKPDQSPKLLIKYASQSFSGVPSRFSGSGSGTDFTLTINSVEAEDAATYYCQQSNSWPLTFGAGTKLEIKR
notes: Hybrid antibody: heavy chain of Cetuximab with the light chain of Anti-PDL1 (the common light chain)

Experiments:
野生型EGFR on A431 cells = 野生型EGFR on A431 cells (human, UniProt P00533 25-1210); experiment: cell-based or functional assay
PD-L1-His [1] = target: T1, PD-L1-His (UniProt Q9NZQ7 19-238, limits assumed); experiment: ELISA, PD-L1-His coated (Fig. 3A)
T1 construct: extracellular domain; Made in-house in HEK293F; used as ELISA coat and as Biacore analyte; not shown: C-terminal polyhistidine tag

EGFR-ECD-hFc [2] = target: T2, EGFR-ECD-hFc (human, UniProt P00533 25-645); experiment: ELISA, EGFR-ECD-hFc coated (Fig. 3B)
T2 construct: extracellular domain; Made in-house in HEK293F; ELISA coating antigen; not shown: Fc segment of human IgG1

PD-L1-His [3] = target: T1, PD-L1-His; experiment: ELISA, PD-L1-His coated at 10 ng/well
EGFR-ECD-hFc [4] = target: T2, EGFR-ECD-hFc; experiment: ELISA, EGFR-ECD-hFc coated, HRP anti-human Fab detection (Fig. 2B)

Binder	抑制A431细胞的增殖 IC50 (CCK-8) (野生型EGFR on A431 cells) [nM]	EC50 (PD-L1-His [1]) [nM]	EC50 (EGFR-ECD-hFc [2]) [nM]	binding result (PD-L1-His [3])	EC50 (EGFR-ECD-hFc [4]) [nM]
B1	0.709	0.2	0.239	–	–
B2	0.96	0.336	0.185	–	–
B3	0.563	–	0.225	no binding	0.248
